Reference: patent publication US20170275344A1, “POLYPEPTIDES AND USES THEREOF AS A DRUG FOR TREATMENT OF AUTOIMMUNE DISORDERS” (Compugen Ltd., priority 2014, published 2017)

Experiments:
SJL mice = test: PLP139-151/CFA R-EAE with Treg inactivation by anti-CD25; format: in vivo, mouse
Protocol: In two studies, EAE was induced in SJL mice via PLP139-151/CFA priming as described under Methods, below. The mice were divided into 4 and 8 groups in Study I and Study II, respectively groups (n=10/treatment group). In both studies, groups 1-4 the mice received two injections separated by one day, of either Control Ab or anti-CD25 (clone 7D4 at 500 μg/injection i.p. (BioXCell Cat# BE0013; West Lebanon, N.H.)) starting at the onset of disease remission (Day +19 and 21 in Study I or Day +20 and 22 in Study II), followed by treatment with either mIgG2a Control Ig or C1ORF32 ECD-Fc (100 ug/dose; 3×/wk; 2 wks) beginning on the day of the second treatment with anti CD25 (Day 21 in study I and day 22 in study II).
To study the importance of Treg function for maintenance of tolerance by C1ORF32 ECD-Fc a second set of mice was set in study II, groups 5-8, in which mice were treated with Control Ig or C1ORF32 ECD-Fc (SEQ ID NO:42) first in a similar regimen as groups 1-4 (beginning on Day +22), and then two weeks following the last C1ORF32 ECD-Fc (SEQ ID NO:42) treatment, on days 46 and 48, mice received either Control Ab or anti-CD25 (500 μg/injection) to inactivate the Treg cells. The mice were followed for the level of disease severity.
Study I Treatment Groups (n=10 Mice Per Group) 1. Control Ab (Day +19 and 21) plus Control Ig (100 ug/dose; 3×/wk; 2 wks; beginning on Day +21) 2. Anti-CD25 Ab (Day +19 and 21) plus Control Ig (100 ug/dose; 3×/wk; 2 wks; beginning on Day +21) 3. Control Ab (Day +19 and 21) plus C1ORF ECD-Fc (SEQ ID NO:42) (100 ug/dose; 3×/wk; 2 wks; beginning on Day +21) 4. Anti-CD25 Ab (Day +19 and 21) plus C1ORF ECD-Fc (SEQ ID NO:42) (100 ug/dose; 3×/wk; 2 wks; beginning on Day +21) Study II Treatment Groups (n=10 Mice Per Group) 1. Control Ab (Day +20 and 22) plus Control Ig (100 ug/dose; 3×/wk; 2 wks; beginning on Day +22) 2. Anti-CD25 Ab (Day +20 and 22) plus Control Ig (100 ug/dose; 3×/wk; 2 wks; beginning on Day +22) 3. Control Ab (Day +20 and 22) plus C1ORF32 ECD-Fc (SEQ ID NO:42) (100 ug/dose; 3×/wk; 2 wks; beginning on Day +22) 4. Anti-CD25 Ab (Day +20 and 22) plus C1ORF32 ECD-Fc (SEQ ID NO:42) (100 ug/dose; 3×/wk; 2 wks; beginning on Day +22) 5. Control Ig (100 ug/dose; 3×/wk; 2 wks; beginning on Day +22) plus Control Ab (Day +46 and 48) 6. […]
SJL mice were primed with 50 μg PLP139-151/CFA to induce R-EAE, and followed for disease through the acute phase of disease and into disease remission. […] Clinical results are expressed as the mean clinical score.
Mice were followed for disease and scored on a 0-5 scale per standard lab protocol as follows: 0, no abnormality; 1, limp tail; 2, limp tail and hind limb weakness; 3, hind limb paralysis; 4, hind limb paralysis and forelimb weakness; and 5, moribund.

[1] = test system: total splenocytes and lymph node cells; test: Ex vivo recall responses in adoptive transfer R-EAE; format: cell-based, mouse
Protocol: On day 45 (unless otherwise indicated) following cell transfer, spleen and cervical lymph nodes or CNS from 3 representative mice of each group were collected, and the total cells were activated ex vivo at 0.5×10^6 cells per well with either OVA323-339, PLP139-151, PLP178-191, MBP84-104 (20 ug/ml), or anti-CD3 (1 ug/ml). Two sets of cultures were set up side-by-side. One set was pulsed with 1 uCi of tritiated thymidine at 24 hours and harvested at 72 hours to determine cell proliferation. In the second set of cultures, supernatants were collected at 72 hours and tested for peptide-specific cytokine production as determined by LiquiChip.

B1: C1ORF32 ECD-Fc (SEQ ID NO:42): fusion protein of human C1ORF32 ECD fused to mouse immunoglobulin Fc (human-mouse fusion protein) (protein)
chain: LQVTVPDKKKVAMLFQPTVLRCHFSTSSHQPAVVQWKFKSYCQDRMGESLGMSSTRAQSLSKRNLEWDPYLDCLDSRRTVRVVASKQGSTVTLGDFYRGREITIVHDADLQIGKLMWGDSGLYYCIITTPDDLEGKNEDSVELLVLGRTGLLADLLPSFAVEIMGSENLYFQGSGEPRGPTIKPCPPCKCPAPNLLGGPSVFIFPPKIKDVLMISLSPIVTCVVVDVSEDDPDVQISWFVNNVEVHTAQTQTHREDYNSTLRVVSALPIQHQDWMSGKEFKCKVNNKDLPAPIERTISKPKGSVRAPQVYVLPPPEEEMTKKQVTLTCMVTDFMPEDIYVEWTNNGKTELNYKNTEPVLDSDGSYFMYSKLRVEKKNWVERNSYSCSVVHEGLHNHHTTKSFSRTPGK
modifications: Fusion protein human C1ORF32-ECD fused to mouse IgG2a Fc
relapsing EAE disease (SJL mice; Study I, Control Ab, 100 ug/dose 3x/wk 2 wks from Day +21): abrogated | disease severity (SJL mice; Study I, treatment starting after anti-CD25 (Day +19 and 21), vs anti CD25 + control Ig): significant decrease in disease severity | disease symptoms (SJL mice; Study II, anti-CD25 on days 20 and 22, before treatment from day 22): completely inhibited diseases symptoms | disease course after late Treg inactivation (SJL mice; Study II, anti-CD25 on days 46 and 48, 2 weeks after completion of treatment): immediate relapse which was alleviated as the effect of anti-CD25 dropped off | recall responses of CNS cells to PLP139-151 and anti CD3 ([1]; day 10, treatment from time of cell transfer): abolished | GM-CSF secretion ([1]; day 45, activation with PLP139-151 and PLP178-191): inhibition of GM-CSF secretion | IFN-gamma and IL-17 secretion ([1]; day 45, activation with anti-CD3, PLP139-151, and PLP178-191): inhibition | splenocyte secretion of IL-4 and IL-10 ([1]; day 45, in response to PLP139-151): increased splenocyte secretion | recall responses: cellular proliferation of splenocytes and lymph node cells ([1]; day 45, treatment from onset of remission): decreased level of cellular proliferation
